Laboratory results reported in PMC3070541.

Target: 2A3-D NKT TCR βL95A, on 5KC hybridoma (mouse)
Assay: flow cytometry on cells

- reduction of tetramer binding against the wild type: 10%
Substance: mouse CD1d tetramer loaded with α-galactosylceramide (αGC) (from UniProt P11609 22-336; P01887 21-119) (complex)
